The values below come from patent US20050064507A1, “Determining kinase specificity” (priority 2003, published 2005).

What all share (type): biochemical
Experiment [1] concerns the target T1, PKC-delta (Homo sapiens, UniProt Q05655).
T1 construct: purchased Calbiochem
In words: In vitro kinase assay: peptide phosphorylation by PKC-delta.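 As to PKC delta phosphorylation: peptide concentration 10 nM.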 Particulars: for PKC delta phosphorylation: normalized to best substrate. The gist of the method:
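Biotin-Lys-dansyl-Lys-Pro-Pro-Gly-linked proteomic peptides (12–21-residue core) phosphorylated by PKC-delta in HEPES/Triton/CaCl2/MgCl2 buffer with phosphatidyl serine and PMA, 100 μM [γ-32P]ATP, 30° C., ~10 min, stoichiometry ≤5%; streptavidin-plate capture. Signal normalized as % of best peptide substrate.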

Experiment [2] addresses T2, PKC-epsilon (Homo sapiens, UniProt Q02156).
T2 construct: purchased Calbiochem
T2 sequence (Q02156 1-737): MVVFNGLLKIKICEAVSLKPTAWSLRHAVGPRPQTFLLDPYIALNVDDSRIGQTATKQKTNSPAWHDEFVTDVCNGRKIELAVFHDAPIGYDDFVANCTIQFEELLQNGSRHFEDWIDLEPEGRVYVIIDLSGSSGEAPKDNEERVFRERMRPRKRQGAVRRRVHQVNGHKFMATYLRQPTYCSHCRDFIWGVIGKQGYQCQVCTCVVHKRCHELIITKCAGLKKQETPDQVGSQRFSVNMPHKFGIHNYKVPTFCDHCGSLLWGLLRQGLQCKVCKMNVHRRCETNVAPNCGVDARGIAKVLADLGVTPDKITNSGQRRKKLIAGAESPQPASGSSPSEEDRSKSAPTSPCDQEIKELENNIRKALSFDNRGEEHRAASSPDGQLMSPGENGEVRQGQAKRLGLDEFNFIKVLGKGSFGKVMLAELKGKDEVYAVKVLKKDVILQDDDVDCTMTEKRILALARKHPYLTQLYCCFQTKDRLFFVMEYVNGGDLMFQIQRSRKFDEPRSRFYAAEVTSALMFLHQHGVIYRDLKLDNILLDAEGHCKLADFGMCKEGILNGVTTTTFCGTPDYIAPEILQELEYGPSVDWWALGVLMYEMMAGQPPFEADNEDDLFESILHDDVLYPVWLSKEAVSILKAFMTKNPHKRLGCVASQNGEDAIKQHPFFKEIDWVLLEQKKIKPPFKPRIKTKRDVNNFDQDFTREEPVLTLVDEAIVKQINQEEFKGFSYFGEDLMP
Description: In vitro kinase assay: peptide phosphorylation by PKC-epsilon. To be noted: for PKC-epsilon phosphorylation: normalized to best substrate; for phosphorylation by PKC epsilon: peptide concentration 1 uM. Here is the method:
(§1) Catalytically active preparations of the kinases of interest were either purchased or prepared. Purchased and tested active kinase preparations including the following: PKC-alpha, PKC-delta, PKC-epsilon, PKC-zeta, PKC-mu, PKA, PKG from Calbiochem, ROK alpha/ROCK-II, active from Upstate Biotechnology, and AKT1 from Panvera.
(§2) The conditions of the kinase assay and the amount of active kinase used varied with the kinase and with the accuracy needed. For a typical experiment, 5-20 ng of kinase was used per well and each peptide pool was assayed in duplicate wells. Note that the absolute amount of kinase used was not usually a critical parameter, because the desired information related to specificity of the kinase not its absolute activity, and robustness of the assay depends on comparisons of the same amount of kinase on different peptides. The combination of kinase concentration and assay duration was modified to assure that the stoichiometry of peptide phosphorylation never exceeded 5%. The choice of kinase buffer depended on the kinase being analyzed. For studies of PKC, 100 mM HEPES, 0.05% Triton-X100, 1 mM CaCl2, 20 mM MgCl2, 0.2 mg/ml phosphatidyl serine (Avanti Polar Lipids), PMA 100 ng/ml was typically used. The lipid stock was prepared by transferring 3 mg phosphatidyl serine into iced mixture of 450 μl water plus 50 μl of 10% Triton-X100, sonicating 10 times on ice for 1 sec each.
(§3) The kinase reaction mixture was assembled by sequential addition to a tube held on ice of: 5 μl peptide (100 μM for final concentration of 10 μM), 15 μl of kinase (typically 5 ng/well, in appropriate kinase buffer), 30 μl of ATP (1 uCi/well of ^32P-gamma ATP in a stock of 167 μM cold ATP in the kinase buffer; for final concentration for 100 μM ATP). The mixture was rapidly warmed to desired reaction temperature (30° C. for PKC) and incubated for the desired duration (usually 10 minutes). The kinase assay was terminated by transfer to 4° C. water batch, and rapid addition of an equal volume (50 μl) of stop solution [0.1M ATP+0.1M EDTA in water, pH 8].
(§4) The peptides were then captured from the reaction mixture by transfer to a Reacti-Bind Streptavidin High Binding Capacity Coated Plates (HBC) (Pierce Biotechnology) as follows. The HBC plates were pre-rinsed three times with PBS/Tween PBS/Tween20 0.05% (PBS/Tween). Part of all of the reaction mixture was then transferred wells of a HBC plate pre-filled with 90 μl of phosphate-buffered saline (PBS); typically each aliquots of each phosphorylation reaction were transferred to duplicate HBC plates to assure accuracy by additional replication
(§5) For kinase assays done at the standard peptide concentration of 10 μM, the peptide concentration in the reaction mixture becomes 5 μM after addition of the stop solution; consequently 10 μl of the reaction (50 pMoles of peptide) was transferred to the HBC plate. More generally, the amount of reaction mixture transferred was estimated to be about 50 pMoles of peptide. […] The HBC plates were incubated for 0.5 to 1.5 hr at room temperature for complete binding of biotinylated peptides to plate-bound streptavidin. The HBC plates were then washed extensively with PBS/Tween. Five washes were done routinely and additional wash steps were added if the wash solution removed from the plate had measurable radioactivity as detected using a Geiger counter. This step is essential to obtaining a good the signal to noise ratio because the fraction of radioactivity incorporated in the peptides was a tiny fraction of the total in the reaction mixture. The wells were air-dried. A volume of 40-50 μl of microScint-20 (Packard Instruments) was added to each well. The plates were covered with stick-on film sheet. Radioactive emissions were measured in a TopCount NXT Microplate Scintillation and Luminescence Counter (Packard Instruments). Typically samples were counted for 5 minutes (or more) to improve the signal to noise ratio when counts were low. […]

Experiment [3] deals with T3, PKA (Homo sapiens, UniProt P17612).
T3 construct: purchased Calbiochem
In words: In vitro kinase assay: peptide phosphorylation by PKA. To be noted: normalized to best substrate. Here is the method: as §1, §2, §3, §4, §5

T1 sequence (Q05655 whole entry): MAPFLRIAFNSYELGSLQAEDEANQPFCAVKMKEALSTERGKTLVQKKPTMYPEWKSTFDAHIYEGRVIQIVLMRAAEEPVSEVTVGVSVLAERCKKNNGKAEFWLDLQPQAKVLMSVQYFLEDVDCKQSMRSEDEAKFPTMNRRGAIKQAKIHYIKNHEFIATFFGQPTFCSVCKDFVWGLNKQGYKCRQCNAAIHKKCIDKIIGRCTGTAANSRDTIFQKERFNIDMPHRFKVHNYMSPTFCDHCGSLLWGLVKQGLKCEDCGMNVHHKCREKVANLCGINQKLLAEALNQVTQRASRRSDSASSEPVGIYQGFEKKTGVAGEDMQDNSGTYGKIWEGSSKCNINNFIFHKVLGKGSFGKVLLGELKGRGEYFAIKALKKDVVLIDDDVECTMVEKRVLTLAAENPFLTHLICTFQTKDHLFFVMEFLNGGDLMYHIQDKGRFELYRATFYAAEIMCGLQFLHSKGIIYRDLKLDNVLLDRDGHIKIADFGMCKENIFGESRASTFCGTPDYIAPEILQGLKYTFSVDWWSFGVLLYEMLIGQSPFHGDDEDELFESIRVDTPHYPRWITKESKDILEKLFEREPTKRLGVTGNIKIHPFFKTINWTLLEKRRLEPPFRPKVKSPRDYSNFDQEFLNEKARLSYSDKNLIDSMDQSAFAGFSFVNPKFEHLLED

Consider 76 (HVRRRRGTFKRSKLRARD) [compound 76], for which the PKC delta phosphorylation in experiment [1] is 100%. Also, in experiment [2], the PKC-epsilon phosphorylation is given as 100%. The PKA phosphorylation in experiment [3] amounted to 69%.
Consider 77 (KKKKRASFKRKSSKKG) [compound 77], for which the PKC delta phosphorylation in experiment [1] turned out to be 76%. Moreover, the PKC-epsilon phosphorylation in experiment [2] is 71%. Further, the PKA phosphorylation in experiment [3] was 4%.
78 (KFARKSTRRSIRLPE) [compound 78]: the PKC delta phosphorylation in experiment [1] is given as 52%. For the same substance, the PKC-epsilon phosphorylation in experiment [2] came to 84%. The PKA phosphorylation in experiment [3] is 5%.
Consider 79 (NRKKKRTSFKRKA) [compound 79], for which the PKC delta phosphorylation in experiment [1] was found to be 66%. Further, the PKC-epsilon phosphorylation in experiment [2] is 92%. For the same substance, the PKA phosphorylation in experiment [3] came to 3%.
The corresponding values for 80 (KKKKKRFSFKKSFKL) [compound 80] are 24%, 71% and 3%.
The like results for 82 (PRLIRRGSKKRPAR) [compound 82] were, in that order, 40%, 72% and 10%.
Take 83 (RKIPKRPGSVHRTPSRQ) [compound 83]: the PKC delta phosphorylation in experiment [1] is 38%. Besides, in experiment [2], the PKC-epsilon phosphorylation worked out at 47%. In experiment [3], the PKA phosphorylation is listed as 2%.
The corresponding values for 84 (QKKSRLRRRASQLKI) [compound 84] are 34%, 52% and 63%.
The corresponding values for 85 (RFARKGSLRQKNV) [compound 85] are 34%, 86% and 81%.
The like results for 86 (RQRKRKLSFRRRTDKD) [compound 86] were, in that order, 42%, 63% and 87%.
For the substance 89 (EYLERRASRRRAV) [compound 89], the PKC delta phosphorylation in experiment [1] worked out at 20%. In experiment [2], the PKC-epsilon phosphorylation is 45%. In experiment [3], the PKA phosphorylation was found to be 4%.
The like results for 90 (AQIVKRASLKRGKQ) [compound 90] were, in that order, 32%, 49% and 3%.
On to “144 (LSSMFGTLPRKSRKGSVRKQ) [compound 144]”, for which the “phosphorylation by PKC-delta” value in experiment [1] (peptide concentration 1 uM) is 35; in experiment [1] (peptide concentration 10 uM), 28. In experiment [2], the “phosphorylation by PKC epsilon” value was found to be 24.
“145 (ISDFGLAKKLAVGRHSFSRR) [compound 145]”: the “phosphorylation by PKC-delta” value in experiment [1] (peptide concentration 1 uM) amounted to 34; in experiment [1] (peptide concentration 10 uM), 23. Also, in experiment [2], the “phosphorylation by PKC epsilon” value turned out to be 26.
The corresponding values for “146 (QAQRQIKRGAPPRRSSIRNA) [compound 146]” are 33, 14 and 28.
With “147 (RDIRQSPKRGFLRSASLGRR) [compound 147]”, the “phosphorylation by PKC-delta” value was determined as 27 in experiment [1] (peptide concentration 1 uM) and 13 in experiment [1] (peptide concentration 10 uM). Moreover, the “phosphorylation by PKC epsilon” value in experiment [2] worked out at 26.
The like results for “154 (KKFFTQGWAGWRKKTSFRKP) [compound 154]” were, in that order, 26, 14 and 29.
For the substance “155 (RWDKRRWRKIPKRPGSVHRT) [compound 155]”, the “phosphorylation by PKC-delta” value in experiment [1] (peptide concentration 1 uM) worked out at 30; in experiment [1] (peptide concentration 10 uM), 23. The “phosphorylation by PKC epsilon” value in experiment [2] is recorded as 26.
The like results for “156 (SAQITIPKDGQKRKKSLRKK) [compound 156]” were, in that order, 29, 31 and 18.
The corresponding values for “157 (PSPSNETPKKKKKRFSFKKS) [compound 157]” are 27, 35 and 12.
“158 (VQMTWSYPDEKNKRASVRRR) [compound 158]”: the “phosphorylation by PKC-delta” value stood at 18 in experiment [1] (peptide concentration 1 uM) and 33 in experiment [1] (peptide concentration 10 uM). The “phosphorylation by PKC epsilon” value in experiment [2] was 11.
The corresponding values for “159 (LYARLARAYRRSQRASFKRA) [compound 159]” are 15, 12 and 25.
Turning to “160 (PFEVVWYKDKRQLRSSKKYK) [compound 160]”, the “phosphorylation by PKC-delta” value in experiment [1] (peptide concentration 1 uM) is recorded as 25; in experiment [1] (peptide concentration 10 uM), 31. Moreover, the “phosphorylation by PKC epsilon” value in experiment [2] is given as 13.
The corresponding values for “161 (KYKAFIRIPIPTRRHTFRRQ) [compound 161]” are 22, 14 and 21.
The corresponding values for “162 (KKKFSFKKPFKLSGLSFKRN) [compound 162]” are 21, 13 and 19.
As for “163 (PPRTPGWHQLQPRRVSFRGE) [compound 163]”, the “phosphorylation by PKC-delta” value in experiment [1] (peptide concentration 1 uM) worked out at 13; in experiment [1] (peptide concentration 10 uM), 21. Moreover, the “phosphorylation by PKC epsilon” value in experiment [2] is 14.
Take “164 (TEGKMARVAWKGKRRSKARK) [compound 164]”: the “phosphorylation by PKC-delta” value in experiment [1] (peptide concentration 1 uM) is 18; in experiment [1] (peptide concentration 10 uM), 26. In experiment [2], the “phosphorylation by PKC epsilon” value is recorded as 12.
The like results for “165 (TEEKSKKRKKKHRKNSRKHK) [compound 165]” were, in that order, 25, 19 and 12.
The like results for “166 (MAQIERGEARIQRRISIKKA) [compound 166]” were, in that order, 13, 29 and 10.
As to “167 (GLPAPGEDKSIYRRGSRRWR) [compound 167]”, the “phosphorylation by PKC-delta” value is 13 in experiment [1] (peptide concentration 1 uM) and 24 in experiment [1] (peptide concentration 10 uM). Moreover, the “phosphorylation by PKC epsilon” value in experiment [2] is 6.
